Data taken from PMC7534208.

Target: transportin 1 (TNPO1) (human (endogenous in HeLa)) (UniProt Q92973)
Assay: proximity ligation

UniProt Q92973, sequence (Q92973 whole entry): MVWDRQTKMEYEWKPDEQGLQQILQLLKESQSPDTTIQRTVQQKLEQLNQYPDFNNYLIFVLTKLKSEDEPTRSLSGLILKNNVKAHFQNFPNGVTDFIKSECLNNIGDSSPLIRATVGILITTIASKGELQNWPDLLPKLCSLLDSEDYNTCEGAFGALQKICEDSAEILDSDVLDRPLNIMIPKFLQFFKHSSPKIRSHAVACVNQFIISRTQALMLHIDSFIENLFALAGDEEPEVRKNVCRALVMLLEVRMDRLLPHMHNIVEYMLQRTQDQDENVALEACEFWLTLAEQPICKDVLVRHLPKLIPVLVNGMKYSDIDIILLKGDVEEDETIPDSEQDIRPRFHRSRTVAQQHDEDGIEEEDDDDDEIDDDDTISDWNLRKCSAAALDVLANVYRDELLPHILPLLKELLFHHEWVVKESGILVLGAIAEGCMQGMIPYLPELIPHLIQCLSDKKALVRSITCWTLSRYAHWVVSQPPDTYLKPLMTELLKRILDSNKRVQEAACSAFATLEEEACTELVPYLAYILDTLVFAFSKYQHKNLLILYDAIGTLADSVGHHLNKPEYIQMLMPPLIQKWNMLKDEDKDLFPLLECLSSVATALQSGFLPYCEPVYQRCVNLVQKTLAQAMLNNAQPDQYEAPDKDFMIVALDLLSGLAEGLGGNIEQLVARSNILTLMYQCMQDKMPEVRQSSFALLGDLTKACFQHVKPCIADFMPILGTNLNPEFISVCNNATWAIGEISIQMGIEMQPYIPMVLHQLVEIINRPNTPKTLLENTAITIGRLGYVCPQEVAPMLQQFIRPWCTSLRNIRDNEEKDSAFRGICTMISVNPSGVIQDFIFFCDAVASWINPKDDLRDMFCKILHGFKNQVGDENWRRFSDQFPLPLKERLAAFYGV

## HIV-1 Rev (regulator of expression of virion proteins), HA-tagged (from UniProt P04618 1-116) (natural protein)
  PLA puncta per cell (puncta per cell): 26
